Experimental data reported in US20250109190A1 (BYOMASS, published 2025).
Substitutions are numbered along the chain they refer to.

How the values were obtained:
Experiment in all cases: BLI Octet; IgG, avid
human GDNF = target: T1, human GDNF (human, UniProt P39905 78-211, limits assumed)
T1 sequence (looked up): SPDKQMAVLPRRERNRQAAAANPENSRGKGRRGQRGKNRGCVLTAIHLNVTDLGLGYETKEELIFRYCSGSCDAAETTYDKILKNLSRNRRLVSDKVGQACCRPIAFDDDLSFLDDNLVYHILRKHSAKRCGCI

human GDF8 = human GDF8 (human, UniProt O14793 267-375)
BMP10 = target: T2, BMP10 (UniProt O95393 317-424)
T2 sequence (looked up): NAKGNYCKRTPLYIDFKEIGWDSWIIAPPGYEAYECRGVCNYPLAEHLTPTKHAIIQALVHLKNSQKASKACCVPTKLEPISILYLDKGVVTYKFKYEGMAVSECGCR

human GDF10 = target: T3, human GDF10 (human, UniProt P55107 369-478)
T3 sequence (looked up): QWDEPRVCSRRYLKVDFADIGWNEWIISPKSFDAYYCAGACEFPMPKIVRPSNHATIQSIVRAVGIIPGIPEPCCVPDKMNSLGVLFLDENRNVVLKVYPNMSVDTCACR

BMP9 = target: T4, BMP9 (UniProt Q9UK05 320-429)
T4 sequence (looked up): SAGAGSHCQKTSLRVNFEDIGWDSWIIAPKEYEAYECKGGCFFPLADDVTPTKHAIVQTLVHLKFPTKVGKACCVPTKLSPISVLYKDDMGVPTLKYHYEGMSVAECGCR

GDF15 Fc = target: T5, GDF15 Fc (UniProt Q99988 197-308, limits assumed)
T5 construct: species not given; not shown: Fc part of the fusion
T5 sequence (looked up): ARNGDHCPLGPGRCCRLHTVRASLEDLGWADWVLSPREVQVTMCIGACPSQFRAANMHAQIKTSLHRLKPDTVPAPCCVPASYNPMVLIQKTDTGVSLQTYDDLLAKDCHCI

Measured: binding result

B1: Antibody F (Clone F), IgG (antibody, V domains shown)
VH: QVQLVQSGAEVKKPGASVKVSCKASGYTFTGYHIHWVRQVPGQGLEWMGVISAYSGDTNYAQKLQGRVTMTTDTSTSTAYMELRSLRSDDTAVYYCARARDIAALGLGAFDYWGQGTLVTVSS
VL: EIVLTQSPATLSVSPGERATLSCRASQSVSSNLAWYQQKPGQAPRLLIYGASDRATGIPARFSGSGSGTEFTLTISSLQSEDFAVYYCIQYSNYPRTFGGGTKVEIKR
notes: IgG
no binding (tested: 100 nM): all assays above

B2: Antibody B (Clone B), IgG (antibody, V domains shown)
VH: QVQLVQSGAEVKKPGASVKVSCKASGYTFIGYDMHWVRQAPGQGLEWMGVINPSSGGTNYAQKFQGRVTMTRDTSISTAYMELSRLRSDDTAVYYCARARDIAALGLGAFDYWGQGTLVTVSS
VL: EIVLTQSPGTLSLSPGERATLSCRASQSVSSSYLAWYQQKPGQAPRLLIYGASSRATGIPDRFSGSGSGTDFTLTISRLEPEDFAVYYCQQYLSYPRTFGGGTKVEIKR
notes: IgG
no binding (tested: 100 nM): all assays above

B3: Antibody C (Clone C), IgG (antibody, V domains shown)
VH: B2 VH with I30P, D33H, G57D
VL: EIVLTQSPGTLSLSPGERATLSCRASQSVSSSYLAWYQQKPGQAPRLLIYGASSRAGGIPDRFSGSGSGTDFTLTISRLEPEDFAVYYCQQYVAYPRTFGGGTKVEIKR
notes: IgG
no binding (tested: 100 nM): all assays above

B4: Antibody E (Clone E), IgG (antibody, V domains shown)
VH: B2 VH with I30H, D33N, V50S, S54Y, G57Y, N59I, L105A
VL: B3 VL with S30R, G57T, A94S
notes: IgG
no binding (tested: 100 nM): all assays above

B5: Antibody D (Clone D), IgG (antibody, V domains shown)
VH: B2 VH with I30F, D33S, G57D
VL: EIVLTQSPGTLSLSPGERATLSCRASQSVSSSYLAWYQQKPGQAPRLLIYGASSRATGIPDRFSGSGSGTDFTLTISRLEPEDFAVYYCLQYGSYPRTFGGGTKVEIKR
notes: IgG
no binding (tested: 100 nM): all assays above
